Measurements published in US20100291638.

Key:
Conditions in all cases: dNTP incorporation; background <500
[1] = test system: T1, DNA polymerase clone 1773 (uncultured hot spring virus (Great Boiling Spring))
T1 sequence: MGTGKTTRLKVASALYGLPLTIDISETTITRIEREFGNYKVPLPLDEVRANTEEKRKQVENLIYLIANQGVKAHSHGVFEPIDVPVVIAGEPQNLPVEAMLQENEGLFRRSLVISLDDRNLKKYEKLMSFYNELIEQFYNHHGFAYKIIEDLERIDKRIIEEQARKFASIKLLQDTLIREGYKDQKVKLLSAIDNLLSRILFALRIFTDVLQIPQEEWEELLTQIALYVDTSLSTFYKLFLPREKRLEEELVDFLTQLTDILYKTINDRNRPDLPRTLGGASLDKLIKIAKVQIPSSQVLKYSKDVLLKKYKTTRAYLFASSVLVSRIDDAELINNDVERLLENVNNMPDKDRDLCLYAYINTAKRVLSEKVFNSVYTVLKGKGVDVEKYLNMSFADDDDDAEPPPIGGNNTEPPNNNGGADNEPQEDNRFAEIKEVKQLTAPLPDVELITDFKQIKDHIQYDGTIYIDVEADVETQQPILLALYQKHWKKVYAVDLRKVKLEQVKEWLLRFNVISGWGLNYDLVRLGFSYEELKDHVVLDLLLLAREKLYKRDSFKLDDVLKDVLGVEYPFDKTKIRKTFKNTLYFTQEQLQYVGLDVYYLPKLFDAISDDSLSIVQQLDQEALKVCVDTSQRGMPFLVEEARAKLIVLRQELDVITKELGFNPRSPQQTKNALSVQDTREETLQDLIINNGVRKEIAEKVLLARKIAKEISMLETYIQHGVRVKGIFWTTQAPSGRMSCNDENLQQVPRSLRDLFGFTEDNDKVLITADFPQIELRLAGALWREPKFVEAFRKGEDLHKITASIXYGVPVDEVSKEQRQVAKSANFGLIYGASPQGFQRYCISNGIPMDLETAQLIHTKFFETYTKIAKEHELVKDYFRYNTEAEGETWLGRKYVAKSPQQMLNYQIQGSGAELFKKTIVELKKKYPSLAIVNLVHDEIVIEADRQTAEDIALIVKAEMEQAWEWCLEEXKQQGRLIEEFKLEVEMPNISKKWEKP

[2] = test system: T2, DNA polymerase clone 1937 (uncultured hot spring virus (Great Boiling Spring))
T2 sequence: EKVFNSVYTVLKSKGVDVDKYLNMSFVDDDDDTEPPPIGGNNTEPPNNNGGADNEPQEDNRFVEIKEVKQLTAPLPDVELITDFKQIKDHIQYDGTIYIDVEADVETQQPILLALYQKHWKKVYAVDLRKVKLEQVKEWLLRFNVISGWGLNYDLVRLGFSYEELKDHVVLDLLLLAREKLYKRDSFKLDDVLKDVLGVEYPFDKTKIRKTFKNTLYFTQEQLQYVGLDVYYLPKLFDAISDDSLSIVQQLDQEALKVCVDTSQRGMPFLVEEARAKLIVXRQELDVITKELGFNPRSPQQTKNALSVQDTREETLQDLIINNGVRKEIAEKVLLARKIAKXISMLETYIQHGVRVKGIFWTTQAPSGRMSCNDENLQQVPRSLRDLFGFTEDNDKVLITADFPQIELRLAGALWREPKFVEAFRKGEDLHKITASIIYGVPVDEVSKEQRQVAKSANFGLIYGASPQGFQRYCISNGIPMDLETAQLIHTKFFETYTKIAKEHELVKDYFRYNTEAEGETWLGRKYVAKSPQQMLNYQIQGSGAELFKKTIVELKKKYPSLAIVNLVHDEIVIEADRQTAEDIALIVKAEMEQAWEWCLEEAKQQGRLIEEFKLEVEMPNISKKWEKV

[3] = test system: T3, DNA polymerase clone 347 (uncultured hot spring virus (Great Boiling Spring))
T3 sequence: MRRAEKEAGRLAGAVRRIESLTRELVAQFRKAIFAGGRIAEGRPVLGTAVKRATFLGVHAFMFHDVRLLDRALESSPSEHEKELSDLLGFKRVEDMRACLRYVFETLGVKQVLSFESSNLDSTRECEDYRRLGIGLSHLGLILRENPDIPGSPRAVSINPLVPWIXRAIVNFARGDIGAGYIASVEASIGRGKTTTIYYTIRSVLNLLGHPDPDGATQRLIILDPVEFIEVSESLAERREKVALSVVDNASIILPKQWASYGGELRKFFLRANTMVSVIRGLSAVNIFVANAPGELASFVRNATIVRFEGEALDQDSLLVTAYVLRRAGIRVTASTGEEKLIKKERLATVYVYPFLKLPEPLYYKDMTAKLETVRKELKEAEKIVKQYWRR

[4] = test system: T4, DNA polymerase clone 1160 (uncultured hot spring virus (Great Boiling Spring))
T4 sequence: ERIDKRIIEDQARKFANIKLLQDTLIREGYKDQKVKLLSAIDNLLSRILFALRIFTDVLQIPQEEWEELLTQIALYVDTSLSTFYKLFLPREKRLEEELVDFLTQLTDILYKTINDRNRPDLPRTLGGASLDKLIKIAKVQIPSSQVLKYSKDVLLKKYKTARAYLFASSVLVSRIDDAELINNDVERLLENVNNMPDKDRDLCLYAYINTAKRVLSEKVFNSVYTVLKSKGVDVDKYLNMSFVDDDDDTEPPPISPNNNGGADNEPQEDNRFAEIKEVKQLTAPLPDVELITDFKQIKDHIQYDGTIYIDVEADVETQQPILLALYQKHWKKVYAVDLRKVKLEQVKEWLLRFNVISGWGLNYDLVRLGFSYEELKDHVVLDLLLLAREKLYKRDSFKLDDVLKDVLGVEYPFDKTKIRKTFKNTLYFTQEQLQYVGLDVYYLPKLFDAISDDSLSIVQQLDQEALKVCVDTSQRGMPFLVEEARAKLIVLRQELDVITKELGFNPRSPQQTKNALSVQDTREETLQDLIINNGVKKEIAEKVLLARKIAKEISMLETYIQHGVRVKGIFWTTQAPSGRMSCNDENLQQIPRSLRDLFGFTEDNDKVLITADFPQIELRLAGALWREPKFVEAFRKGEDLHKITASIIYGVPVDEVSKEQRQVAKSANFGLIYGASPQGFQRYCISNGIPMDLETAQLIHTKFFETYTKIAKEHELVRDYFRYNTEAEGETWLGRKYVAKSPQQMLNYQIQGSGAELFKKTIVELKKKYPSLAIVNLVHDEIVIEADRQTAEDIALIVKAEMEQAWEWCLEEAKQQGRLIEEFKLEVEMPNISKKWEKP

activated calf thymus DNA
activity [1]: 124000 cpm | activity [2]: 70300 cpm | activity [3]: 18700 cpm | activity [4]: 139000 cpm
